For the assay, the target named is Raf-1 (UniProt P04049). Nature of the assay: FLAG IP, GFP-Raf-1 blot. Conditions: reference: FLAG-MST2 wild type; sites Y81.

For the substance “MST2 (from UniProt Q13188) FLAG-MST2 Y81F”, the “binding against the reference” value is given as “stronger”.

These data come from article PMC3348883.
